Measurements: the DeepSol protein solubility set

Experiment: soluble on expression in E. coli; label from the status in PepcDB or PDB records

Row | Sequence | soluble on expression in E. coli
1 | MRIVVTRPQRSGERTAAKLEALGHAPVLLPLFHPIHHGERATSALSDPAGAIAVTSAEALRALATCEEQLAPYLSKPLFAVGGATAEAAQETGFEQIFTASGDALGLTVLVKQHRAFLTEEEPLLYLAGRPRGSVFEEGLAAAGIPFRTVDCYEMLPSDISENTLETTLLDTTADMVLLYSSEAARAFFHHVSADKYVTALAATKFICISRNVLFLVPEIFRANAKAAEEPSEAAMFELLHHNSGT | not soluble
2 | MRKDVKIYLNHILESIELIEEYTKDKTEDDFFTSKFLQDAVIRRIEIIGEAIKNLPMEFREKYNHIPWKEFAEMRDILIRKYFGVDLGLTWEVVKKDIPKLKEEILKIMEELDKNKNNKYNVFAYGELMKKERLLELINRVPKMIEGRVYGYEKFFDETIGYYGARKKEGSYIDGIILLDITDKELGIFDDYEDLDVYYIREKTTAVSEDGRKYDVYIYLRK | soluble
3 | MRKGLLAALLLLSACQVLEGSGYRVTEVQFLFPEATERWTYFYGEPRVVELDGRPLRLEAPQGENLWAFPGALWVEGSPVLRATYPSRPPVAEAVRGVSGSLLQVRAQAPLLATWLYDGVGWVRLTGSLREGEERTLVQPANYQTPRLFPLTEEESAVVLREVLARRGGKPVVVFELREPPLPPLRLSPAPDAYRIARLQVQYGLRLEPVMPPAPIFRVLGQGTQAAYQEEAPLALLANDPTSFNRLWALAVGNQLPRPAAPAVDFRNRSVAAFFWGLKPTGGYGLKVVGVTYAGERARVVLSLGAPKPGAITTQALTSPYVVLELQKVRRVVFADTSGKVLAEARD | soluble
4 | MRKIILASGSPRRKELLELAGVPFEIIVSEVEETIGAYSSPSDIVMSLALQKASAVAENNSDHIVLGADTIVTYESRILGKPSNKAEAKEMLQLLSGKTHEVYTGVAIIAKDKTVTFYERTEVTFWELTEEEIDAYVASKEPLDKAGSYGIQGKGSIFVQHIQGDYYSVVGLPISRLVRELKQFNIDVTHA | not soluble
5 | MRKILITGGAGFIGSALVRYIINETSDAVVVVDKLTYAGNLMSLAPVAQSERFAFEKVDICDRAELARVFTEHQPDCVMHLAAESHVDRSIDGPAAFIETNIVGTYTLLEAARAYWNALTEDKKSAFRFHHISTDEVYGDLHSTDDFFTETTPYAPSSPYSASKASSDHLVRAWLRTYGLPTLITNCSNNYGPYHFPEKLIPLMILNALAGKSLPVYGNGQQIRDWLYVEDHARALYCVATTGKVGETYNIGGHNERKNLDVVETICELLEELAPNKPHGVAHYRDLITFVADRPGHDLRYAIDASKIARELGCVPQETFESGMRKTVQWYLANESWWKQVQDGSYQGERLGLKG | soluble
6 | MRKIVLASVVTSLVGCSMGHRDPVEAKQALNQAINETNSRQIDQLPPSVEADLMPDMDTLTASEPKTLQRFRIQAEDVEAKAFFASLVQGTEYSAAIHPAVTGRITLNLTDVTLDEALGVVRDLYGFEVVKEGKVIQVYPAGLRTVTIPVDYLQFKRTGRSLTSITTGTITNTDTNNSNSSSSSSSSISSNSSSDGSSSNSNSNRSDARGGTEIETTNESDFWPLLEKAVAQLLGGSGGQTVIVNPQAGVLTLRAYPDEIRQVNEFLGISQQRMHRQVILEAKILEVTLSDGYQQGINWSKAFSSNGANYKIGSGSITQDSNGNPITSVLPGLDAIGNLLGGQSNVVISSGSFDAVISFMATQGDLNVLSSPRVTASNNQKAVIKVGTDEYYVTDLSSVVGTGDNAQASPDITLTPFFSGISLDVTPQIDDQGNVLLHVHPAVIEVEQQTKKILYRSEEIELPLARSSIRESDSVIRAKDGDVVVIGGLMKSNTVDQVSKVPFLGDVPALGHLFRNTTKLTQKTELVILLKPTVVGVNTWQKELERSRSLLQEWFPDSQ | not soluble
7 | MRKIWGILFLCLTFMLVGCGKEEKPQEAFDTYAKAWNKQKFAEMYDQLSEKAKKDISKKEFTEKYEKIYSGIEVKNLKVEAGEVKEDKKDEGPIPFKVSMDTVGGKINFGHEAKMVKEKDGDKESWKVDWTPDFIFPGMTKDSKVRMQTTEPKRGEIYDRNGKGLATNGKASEIGLIPEKLGDTAPQTKETVAKLLNMSVEEIDQKLAAKWVKPGYLVPIGILPEGATQNTYIDLPGVSTKPVNVRTYPLGEAAAHLTGYIGKVNAEDLKTLQKKGYQADDPVGKAGLEQVLEEKLRGKKGGRVFVEDAQGKEIKNLAKTDAVDGENVTLTIDSAVQEKTYNEMKGEAGSSAAINPKSGETLALVSSPAYDPNIIARGTSKAQREAWNNDPKKPMTNRFTQLSVPGSVFKPITAAIGLETKTIDPKEELKIEGLKWTKDSSWGNYYVTRVKDANPIDFDKAMKYSDNIYFAQEALKIGKDKFMSEAKKFGFDEKLPIEYGFPASKIANDGIKNDIQMADTGYGQGQVLMTPLHLALTYAPIVNDGNIPSPYIIKTDKQPKVWKENVISKGNQDILKTAMTKVINDPDGTGKIAKIDGMTLAGKTGTAELKVSKEAEGKELGWFAAFDLNSPDMVITMMIEDVKGRGGSNIPAEKVKHVFQK | not soluble
8 | MRKKLLSIALCATMVAGIFTGCGSSSDTSKKDEGKSADGKITLNVINYHVGTDYAADYYEYLFDAFKKTEEGKNVEFKFEEIPTTDAYNQKIKLLISSGDLPDIVLNGGNNITALAAKSGKVTDITEYLDKDPEWKAMFSDQDLEFNSYEGKVYGIPVSKEISYIYYNKDLFKKAGLEAPDVAYETWDDFYKACDTLKSKNITPVSMDTADLGWLSNLWYSGLIGTAGEEGNKFMNTMYPTDYTSDLVVNATEQLQKMLKNYTTSDAAGGKYDTMATHFFNSEVAMLPNGPWMIPDFKSTDKAPEGFYDKVGIMLLPGSGMESVPTPGDMVGTKDPEKVKAAVAFLKFETTAENQLKALEMAGLQPVSSNIEVPDSLKESDPLMAEVLDIQSKAKYTYGQNQAYWYQNVIDTFSTQLPELAYGNMTAKEFCQKLTDAAKKN | not soluble
9 | MRKPKITVIGGGTGIPVILKSLRLEDVEITAVVTVADDGGSSGELRSVMQLTPPGDLRNVLVALSDMPKFYEQIFQYRFAEGDGDFAGHPLGNLIIAGVAEMQGSTYNAMQSLTQFFHTTGKIYPSSEHPLTLHAVFKDGHEVVGESQIADYKGMIDHVYVTNTYNEETPTASRKVVDAILESDMIVLGPGSLFTSILPNLVIPEIKQALLETRAEVAYVCNIMTQRGETEHFTDADHVEVLKRHLGQDAIDTVLVNIEKVPESYMENNHFDEYLVQVEHDFSGLRKHARRVISSNFLKLEKGGAFHHGDFVVEELMNLVGTHLLEHHHHHH | not soluble
10 | MRKTFRQPHALAAMVIAMLMAQLSGCATTSAQTSPTEFGAGLPEAEDHSESAEPQSVEAEVIDERYADVWEKIQHARTIDVHDDAEVRKQRNFFDDKQKFMTQVTQRAEPFLYYIVSQLEARNMPLELALLPIVESGYNPLAQANGPAGLWQMIPATGRNFGLTINSAYDGRKDALASTDAVLDYLQHLYNTLGNDWINAVAGYNSGELVIKAAIDRNKAKGKPTDFWSLNIPARQVQTVPKWLAFIQIIREPSHYNLKVMPIANRPFLERLPAPNGVEISQIANAAGLTKAEFKTYNPGYRQSVIPSKGKYQIALPIENIGHYQENQHKLYAQKRYDSQTYIVKSGDSLGTIAAKFDLSVKELKQANNLTSDRLKIGQELTLLTPMAANDNEPEPVKTKANTDKSSTKANASSTKATSSKSTDKPVAKAKTYKVKSGDSLDKIARKSKVKLADLMKWNQLNAKSIIKPGQELKISELEHHHHHH | soluble
11 | MRKTKIVCTIGPASESIEKLEQLIEAGMNVARLNFSHGSHEEHGARIKNIREASKKTGKTVGILLDTKGPEIRTHDFVDGQAELVTGAEVVLSTEQVLGTAEKFSVSYAGLYDDVDPGSRILIDDGLIELEVIEKADGNIRTKVLNSGTVKNKKGVNVPNVSIKLPGITEKDVKDIIFGIEQKVDFIAASFVRKAADVLEIRELLEEHNAQYIQIVPKIENQEGIDNIDSILEVSDGLMVARGDMGVEIPPEEVPLVQKRLIKKCNVLGKPVITATQMLDSMQRNPRPTRAEASDVANAIFDGTDAIMLSGETAAGQYPVEAVTMMANIAVRVEKSLQYEDMFKKRIKEFTPTITDAISQSVAHTALALDVAAIVAPTESGYTAKMISKYRPKSPIVAVTSDEQVGRRLALVWGVQAFMAEKRAASTDEMLDTAIQTGMDAGLIGLGDTVVITAGVPVAETGTTNLMKIHVVGEEVAKGQGIGRKAAKGKVVVAKTAAEAVANVNEGDILVTTSTDKDMIPAIEKAAALVVEEGGLTSHAAVVGVSIGIPVIVGVNGVTATLKNGQEVTVDAARGIVYNGHAEVL | soluble
12 | MRKVRVGIWGFGAMGIGMANMILKKEGIEIVSVCSRSTSGKSMYDVLGIERGERPEVIINKNYEEVFREKSVDVVLLATDSFTKKAFDKIIFLLNRKINVISTAEQMAYPQADDADLAKKMDEVAKENGVSILGTGINPGFVLDLLVLALSGTCEEVTSIKAKRVNDLSPFGKSVMVEQGVGVTREEFIKGVEDKTIAGHVGFVESINMIADGLGWKLDKIEQTKEPIMTTVDRKSKYGEALAGNVAGCRQCGYGYVNGEVLIEMEHPQQIIPEAEGIKTGDYVSIKGIPNIDLQINPEIPGGVGTYAMIVNSIPLIINARPGLKTMLDIPVPRAIMGDIRNQIEVELEEESKAN | not soluble
13 | MRKYKLGIYEKALPKNISWQDRLSIAKSCGFDFVEMSIDETDERLARLEWSKEQRLALVNSIVTTGITIPSMCLSGHRRFPFGTRDQATREKAYEIMEKAIQFAVDTGIRTIQLAGYDVYYEEQDQGTIERFQQGLAWAVELAASNQVTLAVEIMDTPFMSSISRWKKWDEMINSPWFTVYPDIGNLSAWNDNIEQELALGINKISAIHLKDTYKITKDCAGQFRDVPFGDGCVDFKGFFEILAKLNYRGAFLIEMWTEKAEEPIAEIINARRWIEQKMKEGGFEC | not soluble
14 | MRLAFFGDVHGNFEALKAVLEDMENKGVDEVFCLGDLVGYGPDPEAVVQTIMEKNIKTIMGNYDDAVGYSKESCGCSYAPGRETEVGDISLKWSIENTSEKTREFLRNLPKKLSFEVEGVRFLLVHGSPLNELLEYVKPNTPPDRLKKIVESVEENVVVNGHTHLPMVKWVMGKLVLNPGSAGRPKDGDPRASYMIVDVENGTVSFEIVRVRYDVKTTVEKIARNGLPVELATVLALGQTFDMGPGKVTFTLGR | soluble
15 | MRLALAVLILLLSIAPAMALCSYEVVEERYADPFTVDISSMPSLKDLPVDDPSDGIDWVKVPLPKPCVNGMGKDTFIMVRKGSSNNLLIFFEGGGACADYETCKPMLCTDLKSCKPLLGIGSVVALESNFCFLKLYYRGGIFDVKKAENPFRDWTIVFVPYNTGDLHMGNRVVRYFDDGKEKTIYHVGYVNAIVAMRWIKENGNFDRIVVAGSSAGGYATLLHGYTAWSIFGKPVTVINDAGPGINPDSDSKFQVNEIMERWGSKQNFPPEALQYFEGKDPAYAIEYFLDKCSDCVYGFFEDQKDLVIGSVFSAYWPWQFKTRLLKVTDELRDYSDRYCRFLPYDYQHTVLTGGLLYPLQKDRFYCEKVGGYRVYEWVKELLRGNCVDLVELEHHHHHH | not soluble
16 | MRLEGLTIGVGFTGSFCTYDKIFIELENLVKEGANVHTIFSDVSQNIDCRFGNSEEFMKKAYELTGNKPIVTIEEAEPFGPKGIADIIIIAPCTGNTAAKLANGITDSPVLMAAKGHLRNDKPLVISISTNDALSFNFKNIGILLNSKNIYFVPFGQDNCKAKPNSMIAHTELIIPTIELALENKQLQPVIKSPHQLEHHHHHH | soluble
